Assay: label from the status in PepcDB records

Question: With “MLAGGAARRLGGADKPGLRVGGRPLLDRVLAACAGARRTVVVADPRPTARPVTWAREDPPGGGPLAALAAGLRHTTAEYVLVASADLPFLAGPTVGRLLSALAAGDADGVLLTDADGRDQPLVAAYRAPALRRELAALARNRAGRGERADGAQLTGLPLRRLTGALRLTRVPDAVAAFDCDTWDDLATARARIREHGHVLDEWISAAKDELGIDLDVDTGILLDLARDAAHGVARPAAPLTTFLVGYAAGRAGGGPEAVAETARKAAALAQRWAEEAADTGSAPARGKPDVAPDATPDTRPDA” as the sequence, how does the protein production read?
Answer: failed

Question: Which protein production does the source give for “MLAGGKMGDMKITRHIHACVEISQGNDRIIIDPGTFGAPDLCGATILVTHNHADHVDPELLKPGMTIYAPRSVAHSIPVECHIVEHGRNFTVGSLSVEVLGSEHAMLTHSMPIAENVGYLINGRVLHPGDTFQPIKDVELALVPVNGPWVKMLDVEGYLKKFPPKRFIGIHDGIVNDRGLAINKKFLTHLGETYGSEYSPLEEGESLEILEHHHHHH” here?
Answer: failed

Question: For “MLAGGSLPSLAPDLVRDLIATAADISLLVSQEGVVREVMANPHHPSFGQLSEWEGRPLEEVLTAESVAKFRLRSEGLEPGRGSVAVELNHIDPRSFEFPIRYILHRLPADRSILMLGRDLRPIAEVQQQLVAAQLAMERDYETQREMETRYRVVLDVSRDPMVLVSMSTGRIVDLNSAAGLLLGGVRQDLLGAAIAQEFEGRRRGEFMETMTNLAATESAAPVEVLARRSQKRLLVVPRVFRAAGERLLLCQIDPADATQPVGDELSENLARLYHEGVDGIVFSDADGTIRGANEAFLNMTDSSSLAAIRGRSIADFLARGSVDLRVLIDSVRRTGQLRLYATRLTTDFAGQIAAEISATWLDDRERPLLVLVVRDTSRADTMRRPVPATGVIDEPARNVMELVGNSTLKDIVAETTDVVEKMCIETALELTRNNRVAAAEMLSLSRQSLYVKLRKFGLLNKDE”, which protein production is on record?
Answer: failed

Question: With “MLALVKRNCLLYFRNRSGVVFSLLGALISFILYLVFLKDNIESSWSQIDNTNQLLDTWLIGGTLAITGITTTLSNLSQWTKDKESHVRQDLLITDLGYWPLSLSYIISAALVGFIMQAIMLTIMGTYFYFTDKVTLSWTVLLQLIFIMILNTLISTIINALIVNRIQSVDNLGKLATIFGAASGFLVGTYVPIGALPDTAQTIMKLTPGAYIASLFRQTLMSDTLKDNFSQANAREHFEKMMGIRLNWQNLLTNTDTYYIVIGILVAGVLIFCLQNALRKYQALI” as the sequence, how does the protein production read?
Answer: failed

Question: For “MLAQKNTNKKPFGNTLTNILCKDKKKKNLDPQISSLVSLVDNMDITQEKKDKIKNLSLKYINSRDVKEKNESINELQKYSNNEECKEQMDSYLMHLRMQNDIKCLKRKNLWNNIGINSITLSLIIIMIMIACMFAIYSTAQYIYVPASFLLIFIIYIVARYFPDMKIGFKKLKTKLNTFFQNKKQITK”, which protein production is on record?
Answer: failed

Question: With “MLARAALILLFFGLLGDSGAGQGRDGNALFDRGRYVAAAETYRAGLDALDDTTGSVYTGLQNNLGLALHRQERLGAARAALRKARRAATTEAERVRVLFNAATVAAEMNDRTKALDRYRTVLLLDPTHEAARFNYEYLKRQAGGGAGSDPPTLEPSPFAQKLKERADALVARTQYTTAAALLRDGMQKDSTVRAYRDFVTRIEEIAQIARSDP” as the sequence, how does the protein production read?
Answer: failed

Question: Which protein production does the source give for “MLARVLILLMFSLCAWPARAHALTIYTEEWPPITFQRNGIADGMAVEVVREIQGRIHDNSPIEVVPWARGYKDLLTTPGVMLFTVGRSEAREKQMTLLGPIAVSQTVLLARKGEAAKLLALGAGIYQRPVGAYRGSIFADAASAAGFVEVDLAPTPQLTAQKMLMGRYDMWVEGGFVVASVLKDIHQPANAVEVVRVLESLELYLAFSRGTSAEEVKRWQDGFAAIKKDGTFKRIYNKWLPRDAPPMEMKLLGVPPGTAR” here?
Answer: failed

Question: For “MLDATTRSGGTATATPRATATDLTVATAAAAAGVTAPGAAVAVPTGFTARCTRVLLSPWSRLSLLVALLAAAASSVLLFEPQKLLAHGWPPQLGGAAAAVVFAVAYGLCTVAFVPRPLLNLAAGALFGSQWGTGTALAGTVLGAGVAFGLGRMLGQDALRPLLRGRWLKAVDGQLSRHAFRSMMAARLFPGVPFWAANYCAAVSRMRWVPFLVATALGSIPNTAAYAVAGARASRPTSPAFLIAMGFIAVPALVGAVVAWRKRHHLRGN”, which protein production is on record?
Answer: failed

Question: For “MLDFLAANPLIALVVILAVGLAIGQIRVFGLSLGAAAVLFVALVVSTANTDIVIPMIVYQLGLAMFVYVIGLSAGPAFFSEFAKKGWKLTIFMLLLLATLIGLAWVLIKSLGLDAAIGTGMFTGALTSTPGMAAVVELIEGIDPSLASEPVIGYSLAYPGAVLGSIVVAAVGAKLLKVNHREDARKEGMITAPLVWKGVQLKPGITGRVGDLPRLAGESIIATRIVDDPHTHRLADPDLPITEGMELLINGTEEAVDRAIKALGEERETKIEDTELIYTRLTVSSPEVAGRTVAELDTVAHGFMIARIRQGDSEVVPKPDTVINYSDRIRVVVAPGRVAEVRRFLGDSEKSLADVNLLPLAIGLSLGLLLGAIPIPLPGGTTMSLGFGGGPIIAGLILGALKHTGPLTWQMPFHANRTISTLGLALFLAGVGTSAGAGFRAALTDSSSLIYMAGGLVITLASALLCAVIGMWVLRLRWDEAMGVAAGTTTNPAIISYLNGQTGTDLANRGYATVYPTAMIGKILGAQILFLLL”, which protein production is on record?
Answer: failed

Question: For “MLDFYALEDLLTPEEKEVQKAARRFLEKEALPHIRDWWEEGVFPTHLIPRFAELGFLGPTLPPEYGGAGVSSAAYGLICYELERVDSGLRSFVSVQSSLVMYPIYAYGSEEQKREFLPKLARGEMVGCFGLTEPDGGSDPYGNMKTRARREGDTWVLNGTKMWITNGNLAHLAVIWAKDEGGEVLGFLVPTDTPGFQAREVKRKMSLRASVTSELVLEEVRVPESLRLPKALGLKAPLSCLTQARFGIAWGAMGALEAVYEEAVAFAKSRSTFGEPLAKKQLVQAKLAEMLAWHTEGLLLAWRLARLKDEGKLTPAQVSLAKRQNVWKALQAARMARDILGGSGITLEYHAIRHMLNLETVYTYEGTHDVHTLVLGREITGLNAF”, which protein production is on record?
Answer: not failed

Question: For “MLDGQSCPLCPSRSSLPAGTSFHQSPMDIVTRTFEAPRTYRPSASVLGRAVRAWTNDRLRGEALYLVAMTGLTILLLMAHYLGWALLTSALAASQGWEPLFWQTQVGSVLVLAGLGLVGFRPAVRVTCRPDAVTLRQGDQTRTLSPPDIQDVRLISAQRYHRHYRRYAATQVFASAVSEQVLCVRTGDGPVIVALPGPEARAALLEHLEALTASASEAAARP”, which protein production is on record?
Answer: failed

Question: Which protein production does the source give for “MLDNHDLIVSSVEKNSPAWDAGLTTEDVIVAIDGLRLLDNELDNRLKDFKPKQTITVTYFRRDKLITSRLKLAAIPKNKLKIIPIAKASVLEHHHHHH” here?
Answer: not failed

Question: Which protein production does the source give for “MLDVAPPVITPRGTKIEPSAGAPFEAVRVARDVLHTSRTAALATLDPVSGYPYTTATNIGIEPDGTPFFFAAGLTLHARNMETDARISVTLAPFGKGDALTLPRLTLVGRADRIGPDEVPLAIARYIARYPKAKLYLSLPDTRLYRLRTEGVQINGGPARNASNITPADLRTDLSGAEELMAAAESEATRLNAIKGEASRLAVLAGAKTGRWKITSIDPDGIDLASASDLARLWFAERVETLKQFEKALAQLLK” here?
Answer: not failed

Question: With “MLEKVEEWIKARGLTWRLLIMQKPTRTVAEAAALLGVSESEIVKTLIVLDNAGGVYAVVIPGDKRLNINSMKELAGKPVRLARANEVVELTGYPVGGVPPVALPPNIVLVVDRILLSRKKVYGGGGRENALLEFSPRELVEATGAVVADVSE” as the sequence, how does the protein production read?
Answer: not failed

Question: Which protein production does the source give for “MLELCSIASGSSGNCICVGTDDCHVLIDAGISGKKIENGLNEFDMTATDMHGILVTHEHIDHIAGLGVMARRYHMPIYATKATIGAIKCTKSVGNIDDELFHPIEAGVDFTIGDIEFEPLHISHDAADPVAYRFKNENHAMAVVTDLGTYDDALVSKLQNLDGLLLEANHDINMLQTGAYPYPLKRRIMGDSGHLSNERSGQLLCELLHDKFGSVILGHLSKENNYEKLAYEAVRLEVTMGDNPYKASDFPMYVAKRDRASDRIAVE” here?
Answer: failed

Question: Which protein production does the source give for “MLELRPARAADVPAIAAMHAASWRASYRGILPDDYLDRYAADERLSLWRRRFETASPPWVRLACWDGEPVGFVCLLPEEAPELGVYLDNLHVLPGQQGRGIGRALMAAAAAEAERIAPGRPLYLWVYERNADACAAYDKMGGVVMARREVDTAAGTRAIALRYSWP” here?
Answer: failed

From a protein production outcome set (Wang et al. 2014)
